The data set concerns the target T1, LmrR (Lactococcus lactis) (UniProt A2RI36).
T1 sequence: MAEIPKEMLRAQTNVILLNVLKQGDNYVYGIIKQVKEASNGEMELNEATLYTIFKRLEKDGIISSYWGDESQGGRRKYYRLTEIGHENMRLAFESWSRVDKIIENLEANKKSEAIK
Put plainly: NMR titration. The settings on record: apo; apparent Kd per base pair; DNA is a fragment pool; 10 mM NaPi pH 6.8, 100 mM NaCl, 25 C (ITC; same buffer for NMR); 5% DMSO in riboflavin titrations.

On to sonicated E. coli genomic DNA, for which the Kd worked out at 37 µM.

Source of the values: paper PMC5428041, “Dynamic equilibrium on DNA defines transcriptional regulation of a multidrug binding transcriptional repressor, LmrR” (Scientific Reports, 2017).
